Assay results taken from paper PMC5610242, “Stapled peptide inhibitors of RAB25 target context-specific phenotypes in cancer” (Nature Communications, 2017).
One block for each molecule: values may come before it. Bridge positions count the residues as written; N and C are the ends. Square brackets hold non-standard residues; d marks the D form. Ends that are not written are not given here. Peptide text beside a SMILES is read from it. * marks the point of attachment. FITC = O=C1OC2(c3ccc(O)cc3Oc3cc(O)ccc32)c2ccc(NC(=S)*)cc21; Met(O) = CS(=O)CC[C@H](N)C(=O)O; S5 = C=CCCC[C@](C)(N)C(=O)O; Nle = CCCC[C@H](N)C(=O)O; PEG = not defined here; βAla = NCCC(=O)O

Columns and labels:
[1] = Circular dichroism spectroscopy and thermal denaturation; format: physicochemical; details: 50 μM peptide in deionized water, 190–260 nm, room temperature
Experimental: Circular dichroism spectroscopy experiments were performed on a Jasco J-170 using a quartz cuvette (path length: 0.1 cm). Peptides were dissolved to 50 μM in deionized water and CD measurements were recorded at one nm increments between 190 and 260 nm, at room temperature. Thermal denaturation experiments were performed by recording CD absorbance at 222 nm at one-degree increments from 10 to 90 °C using a thermostat-controlled cuvette chamber. Raw denaturation data were fit to sigmoidal curves with Prizm 5 software, and the half-maximal temperature was reported as the peptide T m.

[2] = biological target: T1, RAB11a (activated Q70L mutant) (Homo sapiens, UniProt P62491, Q70L); test: Fluorescence polarization binding of FITC-labeled RFP peptides to RAB11a; details: FP; for binding to RAB11a (in words): 25 nM FITC-RFP peptide
T1 construct: GST-RAB11a (1–173, Q70L mutant) in pGEX5x-1; made in house; host or cells: E. coli BL21
T1 sequence (P62491 1-173 Q70L): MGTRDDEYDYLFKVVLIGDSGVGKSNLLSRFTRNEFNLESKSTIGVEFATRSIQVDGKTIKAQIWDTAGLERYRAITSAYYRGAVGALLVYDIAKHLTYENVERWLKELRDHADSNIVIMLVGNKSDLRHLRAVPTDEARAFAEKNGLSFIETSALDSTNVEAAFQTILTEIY
Experimental: (§1) Fluorescence polarization assays were performed with for GST-RAB25 and GST-RAB11a to quantify binding to FITC-labeled unmodified and stapled RFP peptides. Initial fluorescence polarization measurements for RFP1−RFP13 were made by incubating FITC-RFP peptides (25 nM) with threefold dilutions of a given protein in FP buffer, consisting of 20 mM Tris pH 8.0, 150 mM NaCl, 5 mM MgCl2, 2 mM DTT, 10 μM GTP and 2% glycerol. Dilutions and incubations were performed in 96-well, black flat-bottom plates (Nunc) to a total volume of 100 μL, and equilibrated at room temperature for 30 min. Polarization was measured on a Spetramax-M5 multi-label plate reader (Molecular Devices) with λ ex = 485 nm and λ em = 525 nm. Polarization values were determined using the equation: P = (V − H)/(V + H), where P denotes polarization, V denotes vertical emission intensity and H represents horizontal emission intensity. Fraction bound was calculated using the equilibrium maximum polarization value obtained for a given protein among ligands, to which background-subtracted fluorescence polarization values were internally normalized. Fluorescence polarization measurements for FITC-RFP14, 24, 26, 31, and 32 were performed as detailed above with the exception that 10 nM FITC-ligand was used.

RAB25 = biological target: T2, RAB25 (Homo sapiens, UniProt P57735); test: Fluorescence polarization binding of FITC-labeled RFP peptides to RAB25; details: FP, 30 min room temperature; for binding to RAB25 (in words): 25 nM FITC-RFP peptide; for Kd: 10 nM FITC-ligand, GST-RAB25, FP buffer pH 8.0 with 10 μM GTP, mean with 95% C.I., triplicate, read-out: apparent Kd (95% C.I.) RAB25
T2 construct: GST-RAB25 (1–180) in pET41 Ek/LIC; made in house; host or cells: E. coli BL21
T2 sequence (P57735 1-180): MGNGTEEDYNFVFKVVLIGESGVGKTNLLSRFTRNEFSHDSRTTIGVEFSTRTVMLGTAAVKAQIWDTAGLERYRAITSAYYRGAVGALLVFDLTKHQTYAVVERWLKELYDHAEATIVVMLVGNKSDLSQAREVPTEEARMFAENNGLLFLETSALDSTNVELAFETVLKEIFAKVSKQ
Experimental: as §1

MCF7 cells = test: Confocal fluorescence microscopy for peptide cellular penetration; format: in vitro ADME; details: 5 μM FITC-labeled peptide, 10% FBS-containing RPMI, 8 h, 37 °C
Experimental: MCF7 cells were grown in 8-well chamber slides (Ibidi) and treated with FITC-labeled RFPs (5 μM) in 10% FBS-containing RPMI for 8 h at 37 °C. Cells were washed 5× in PBS, fixed in 2% paraformaldehyde/PBS and stained with DAPI according to the manufacturer’s protocol (Sigma). A coverslip was mounted onto the slide and confocal fluorescence microscopy performed with an Olympus DSU spinning disk confocal microscope (Olympus Corporation of the Americas, Center Valley, PA) with a Hamamatsu model C9100 EM-CCD camera (Hamamatsu Photonics, Skokie, IL) run by SlideBook v5.0 software (Intelligent Imaging Innovations, Denver, CO). Post-acquisition processing (multi-channel overlay) was performed using ImageJ software (NIH). Results are representative of images taken from three fields across the same well in at least two biological replicates.

[3] = biological target: T3, GST-RAB11a (1-173, Q70L mutant) (UniProt P62491 1-173, Q70L); test: fluorescence polarisation; as for RFP1-13 but FITC-ligand 10 nM, with threefold dilutions of GST-RAB protein; 20 mM Tris pH 8.0, 150 mM NaCl, 5 mM MgCl2, 2 mM DTT, 10 µM GTP, 2% glycerol; room temperature, 30 min; apparent Kd from a sigmoidal (4-parameter) fit, 95% confidence interval; details: both partners purified
T3 construct: source: E. coli BL21, purified (glutathione sepharose, Superdex 75 gel filtration)
T3 sequence (looked up): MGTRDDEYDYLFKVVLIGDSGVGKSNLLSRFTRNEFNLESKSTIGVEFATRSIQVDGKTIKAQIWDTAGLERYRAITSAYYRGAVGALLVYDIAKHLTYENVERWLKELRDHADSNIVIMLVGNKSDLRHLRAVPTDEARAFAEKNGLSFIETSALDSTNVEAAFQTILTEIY

GST-RAB25 (1-180) [4] = biological target: T4, GST-RAB25 (1-180) (UniProt P57735 1-180); test: as above; details: both partners purified
T4 construct: RAB25, residues 1-180, in pET41 Ek/LIC; source: E. coli BL21, purified (glutathione sepharose, Superdex 75 gel filtration)
T4 sequence (looked up): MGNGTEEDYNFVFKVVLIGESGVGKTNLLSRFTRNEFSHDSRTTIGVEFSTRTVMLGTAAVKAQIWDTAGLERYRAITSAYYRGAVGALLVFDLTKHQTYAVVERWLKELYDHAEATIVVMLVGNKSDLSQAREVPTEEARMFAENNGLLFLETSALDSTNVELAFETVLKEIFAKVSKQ

His6-RAB25 (1–180) = biological target: T5, His6-RAB25 (1–180) (UniProt P57735 1-180); test: competition with bio-RFP14 (ALPHAscreen)
T5 chain: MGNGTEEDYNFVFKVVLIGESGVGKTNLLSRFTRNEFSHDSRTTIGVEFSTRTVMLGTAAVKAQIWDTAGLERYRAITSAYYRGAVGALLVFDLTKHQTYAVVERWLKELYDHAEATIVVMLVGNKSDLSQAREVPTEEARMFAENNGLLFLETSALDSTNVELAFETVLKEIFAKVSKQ

GST-RAB25 (1-180) [5] = biological target: GST-RAB25 (1-180) (UniProt P57735); test: fluorescence polarisation; FITC-peptide 25 nM with threefold dilutions of GST-RAB protein; 20 mM Tris pH 8.0, 150 mM NaCl, 5 mM MgCl2, 2 mM DTT, 10 µM GTP, 2% glycerol; room temperature, 30 min; apparent Kd from a sigmoidal (4-parameter) fit, 95% confidence interval
[6] = biological target: T3, GST-RAB11a (1-173, Q70L mutant); test: as above; details: both partners purified

CD spectrum, secondary structure [1]: β-sheet | binding to RAB11a (in words) ([2]; 30 min room temperature): micromolar affinities | binding to RAB25 (in words) (RAB25): micromolar affinities
Molecule: KQEEINFRLQDYIDRIIVAIMETNPSILEVK-NH2 (C-terminus assumed) [RFP3]

cellular uptake and distribution (MCF7 cells; listed as FITC-RFP14): comparable cellular uptake | Kd (RAB25): 40 nM
Molecule: CCCC[C@@H]1NC(=O)[C@H](C(C)C)NC(=O)[C@@](C)(NC(=O)[C@@H](NC(=O)[C@H](CC(C)C)NC(=O)[C@H](CC(C)C)NC(=O)[C@H](CCCNC(=N)N)NC(=O)[C@H](CC(=O)O)NC(=O)[C@@H](NC(=O)[C@H](Cc2ccc(O)cc2)NC(=O)[C@H](CC(N)=O)NC(=O)[C@H](CCC(=O)O)NC(=O)[C@H](CC(C)C)NC(=O)[C@H](CCC(=O)O)NC(=O)[C@H](CCCNC(=N)N)NC(=O)[C@@H](NC(=O)[C@H](CCC(N)=O)NC(=O)[C@H](CCCNC(=N)N)NC(=O)CCNC(=O)[C@@H](N)Cc2c[nH]c3ccccc23)C(C)C)[C@@H](C)CC)C(C)C)CCCC=CCCC[C@@](C)(C(=O)N[C@H](C(=O)N2CCC[C@H]2C(=O)N[C@@H](CC(N)=O)C(=O)N[C@H](C(=O)N[C@@H](CC(C)C)C(=O)N[C@@H](CCCNC(=N)N)C(=O)N[C@H](C(=O)N2CCC[C@H]2C(=O)N[C@@H](CCCNC(=N)N)C(N)=O)[C@@H](C)CC)[C@@H](C)CC)[C@@H](C)O)NC(=O)[C@H](CCC(=O)O)NC1=O [RFP14] (H-W[βAla]RQVRELENYIDRLLV[S5]V[Nle]E[S5]TPNILRIPR-NH2; staple 18-22)
cellular uptake and distribution (MCF7 cells): significant cellular uptake and distribution throughout the cytosol and nucleus

binding to RAB11a (in words) ([2]; 30 min room temperature): micromolar affinities | binding to RAB25 (in words) (RAB25): micromolar affinities
Molecule: RFP4: unmodified FIP4 peptide ({FITC-PEG}-EQEEINFRLRQYMDKIILAILDHNPSILEIKH; reading uncertain)
CD spectrum, secondary structure [1]: partially disordered peptide folds

Kd ([2]; 10 nM FITC-ligand, GST-RAB11a (1–173, Q70L), FP buffer pH 8.0 with 10 μM GTP, 30 min room temperature, mean with 95% C.I., triplicate, read-out: apparent Kd (95% C.I.) RAB11a): > 5000 nM | Kd (RAB25): > 5000 nM
Molecule: CC[C@H](C)[C@H](NC(=O)[C@H](CCCNC(=N)N)NC(=O)[C@H](C)NC(=O)[C@H](C)NC(=O)[C@]1(C)CCCC=CCCC[C@](C)(NC(=O)[C@H](CC(N)=O)NC(=O)[C@H](CCC(N)=O)NC(=O)[C@H](CC(C)C)NC(=O)[C@H](CCCNC(=N)N)NC(=O)[C@H](Cc2ccccc2)NC(=O)[C@H](CC(N)=O)NC(=O)[C@@H](NC(=O)[C@H](CCCNC(=N)N)NC(=O)CCNC(=O)[C@@H](N)Cc2c[nH]c3ccccc23)[C@@H](C)CC)C(=O)N[C@@H]([C@@H](C)CC)C(=O)N[C@@H](CC(=O)O)C(=O)N[C@@H](CCCNC(=N)N)C(=O)N1)C(=O)N[C@@H](C)C(=O)N[C@@H](CCC(=O)O)C(=O)N[C@H](C(=O)N[C@@H](CC(N)=O)C(=O)N1CCC[C@H]1C(=O)N[C@@H](CO)C(=O)N[C@H](C(=O)N[C@@H](CC(C)C)C(=O)N[C@@H](CCCNC(=N)N)C(=O)N[C@H](C(=O)N[C@@H](CCCCN)C(N)=O)C(C)C)[C@@H](C)CC)[C@@H](C)O [RFP32] (H-W[βAla]RINFRLQN[S5]IDR[S5]AARIAETNPSILRVK-NH2; staple 11-15)

loss of binding affinity for RAB11a on methionine oxidation ([2]; relative to non-oxidised peptide): ~ fivefold
Molecule: RFP5: peptide with oxidation of a methionine involved in binding, a separable byproduct of chemical synthesis ({FITC-PEG}-KQEEINFRLQDYIDRIIVAI[Met(O)]ETNPSILEVK; reading uncertain)

binding to RAB11a (in words) ([2]; 30 min room temperature): essentially no binding | binding to RAB25 (in words) (RAB25): essentially no binding
Molecule: FIP2: unmodified Class-I peptide encompassing the RAB-binding domain of FIP2, FITC-labeled ({FITC-PEG}-ERDTHIRELEDYIDNLLVRVMEETPSILRVPR; reading uncertain)

Kd [3]: 320 nM
B1: FITC-RFP14 (optimized stapled peptide, 'IME' staple) (peptide)
chain: {FITC-PEG-βAla}-RQVRELENYIDRLLV[S5]V[Nle]E[S5]TPNILRIPR
modifications: staple 16-20; reading uncertain

Kd [3]: 90 nM | Kd (GST-RAB25 (1-180) [4]): 20 nM
B2: FITC-RFP26 (optimized stapled peptide, 'IDR' staple) (peptide)
chain: {FITC-PEG-βAla}-RINFRLQN[S5]IDR[S5]IVRI[Nle]ETNPSILRVK
modifications: staple 9-13; reading uncertain

IC50 (His6-RAB25 (1–180)): > 10000 nM
B3: FIP3 peptide (residues 726–756) (peptide)
peptide: KQEEINFRLQDYIDRIIVAIMETNPSILEVK

Kd (GST-RAB25 (1-180) [5]): > 5000 nM | Kd [6]: 2300 nM
B4: FITC-RFP3 (unmodified FIP3 RAB-binding domain peptide) (peptide)
peptide: {FITC-PEG}-KQEEINFRLQDYIDRIIVAIMETNPSILEVK
modifications: reading uncertain
notes: also called fRFP3; FIP3 peptide; source: synthetic peptide (Fmoc solid phase, HPLC purified)

Kd [3]: 560 nM | Kd (GST-RAB25 (1-180) [4]): 160 nM
B5: FITC-RFP24 (optimized stapled peptide, 'IDR' staple) (peptide)
chain: {FITC-PEG-βAla}-RINFRLQN[S5]IDR[S5]IVRIFETNPSILRVK
modifications: staple 9-13; reading uncertain

Kd (GST-RAB25 (1-180) [5]): > 5000 nM | Kd [6]: > 5000 nM
B6: FITC-RFP5 (FIP3 RAB-binding domain peptide with oxidised methionine) (peptide)
peptide: {FITC-PEG}-KQEEINFRLQDYIDRIIVAI[Met(O)]ETNPSILEVK
modifications: reading uncertain
notes: also called fRFP5; source: synthetic peptide (separable byproduct of chemical synthesis, HPLC purified)
